{"source": "the RNAGym collection of RNA variant scans (doi:10.7554/elife.80360)", "parents": {"B1": {"name": "Hairpin Ribozyme (parent)", "chain": "GUCCUCUUUCACGUGCGCGUGAAAGAGAGAAGUGAACCAGAGAAACACACGUUGUGGUAUAUUACCUGGUA"}}}
{"variants_of": "B1", "assay": "self-cleavage, relative activity (ratio to wild type); higher = more cleavage; co-transcriptional"}
{"variant": "A41U A71U", "self-cleavage": 1.15}
{"variant": "A41U U63G", "self-cleavage": 0.223}
{"variant": "A41U U63C", "self-cleavage": 0.248}
{"variant": "A45C U58C", "self-cleavage": 0.0787}
{"variant": "A43U A64G", "self-cleavage": 0.159}
{"variant": "A43C A47G", "self-cleavage": 0.0478}
{"variant": "A43U C46U", "self-cleavage": 0.187}
{"variant": "A45C U55A", "self-cleavage": 0.192}
{"variant": "A43C A49G", "self-cleavage": 0}
{"variant": "A43C A49C", "self-cleavage": 0.199}
{"variant": "G42U C65A", "self-cleavage": 0.142}
{"variant": "A45G C66U", "self-cleavage": 0.218}
{"variant": "A43U U58C", "self-cleavage": 0.189}
{"variant": "A41U A61U", "self-cleavage": 0.399}
{"variant": "A41U A61G", "self-cleavage": 0.148}
{"variant": "A45C A47G", "self-cleavage": 0.0534}
{"variant": "G42A A64G", "self-cleavage": 0.141}
{"variant": "A44U C50G", "self-cleavage": 0.156}
{"variant": "A44U C50A", "self-cleavage": 0.172}
{"variant": "A43C A59G", "self-cleavage": 0.284}
{"variant": "A44C A61C", "self-cleavage": 0.288}
{"variant": "A44C U67C", "self-cleavage": 0.099}
{"variant": "A44C U67G", "self-cleavage": 0.094}
{"variant": "A45C A61U", "self-cleavage": 0.186}
{"variant": "A45C A61C", "self-cleavage": 0.239}
{"variant": "A41U G51A", "self-cleavage": 1.11}
{"variant": "A45C G57A", "self-cleavage": 0.115}
{"variant": "G42U G56A", "self-cleavage": 0.231}
{"variant": "A44C A71G", "self-cleavage": 0.211}
{"variant": "G42U U63C", "self-cleavage": 0.213}
{"variant": "A43G C50G", "self-cleavage": 0.133}
{"variant": "G42A A71G", "self-cleavage": 0.296}
{"variant": "A43U G68C", "self-cleavage": 0.106}
{"variant": "A43G A64C", "self-cleavage": 0.191}
{"variant": "A43G G69U", "self-cleavage": 0.126}
{"variant": "A45G G56U", "self-cleavage": 0.131}
{"variant": "A43U A44U", "self-cleavage": 0.141}
{"variant": "A43U A44C", "self-cleavage": 0.157}
{"variant": "G42C U60A", "self-cleavage": 0.133}
{"variant": "G42C U60G", "self-cleavage": 0.211}
{"variant": "A43G U67A", "self-cleavage": 0.125}
{"variant": "G42A C46G", "self-cleavage": 0.106}
{"variant": "G42C A71C", "self-cleavage": 0.664}
{"variant": "A43C G51A", "self-cleavage": 0.0814}
{"variant": "A43C G51C", "self-cleavage": 0.193}
{"variant": "A45G A71G", "self-cleavage": 0.269}
{"variant": "A45G A71C", "self-cleavage": 0.399}
{"variant": "A45G A71U", "self-cleavage": 0.0799}
{"variant": "A43C U70A", "self-cleavage": 0.0723}
{"variant": "G42A A43G", "self-cleavage": 0.0927}
{"variant": "A44U G51C", "self-cleavage": 0.246}
{"variant": "A44U G51A", "self-cleavage": 0.157}
{"variant": "A44U G51U", "self-cleavage": 0.096}
{"variant": "A44G U52A", "self-cleavage": 0.246}
{"variant": "A41G U70A", "self-cleavage": 0.97}
{"variant": "A43C U55A", "self-cleavage": 0.174}
{"variant": "A43C U55C", "self-cleavage": 0.201}
{"variant": "A45C G68U", "self-cleavage": 0.166}
{"variant": "A45C G68A", "self-cleavage": 0.229}
{"variant": "G42C G51A", "self-cleavage": 0.415}
{"variant": "A43U G56A", "self-cleavage": 0.155}
{"variant": "A44U G56C", "self-cleavage": 0.239}
{"variant": "A44C U53G", "self-cleavage": 0.0885}
{"variant": "G42A C65A", "self-cleavage": 0.0752}
{"variant": "G42A C65G", "self-cleavage": 0.132}
{"variant": "G42A C65U", "self-cleavage": 0.103}
{"variant": "A41U C65G", "self-cleavage": 0.563}
{"variant": "A43U C66G", "self-cleavage": 0.138}
{"variant": "A45C U67A", "self-cleavage": 0.118}
{"variant": "A44G U70A", "self-cleavage": 0}
{"variant": "A45C U63G", "self-cleavage": 0.136}
{"variant": "A45C U63C", "self-cleavage": 0.0707}
{"variant": "G42C U52A", "self-cleavage": 0.256}
{"variant": "A43G A47U", "self-cleavage": 0.131}
{"variant": "A43U C65G", "self-cleavage": 0.155}
{"variant": "A43U C65U", "self-cleavage": 0.144}
{"variant": "G42U C48G", "self-cleavage": 0.134}
{"variant": "G42A U63A", "self-cleavage": 0.174}
{"variant": "G42U A47G", "self-cleavage": 0.107}
{"variant": "G42U A47C", "self-cleavage": 0.22}
{"variant": "G42U A47U", "self-cleavage": 0.12}
{"variant": "A41U C46U", "self-cleavage": 0.0994}
{"variant": "A43C U67G", "self-cleavage": 0.13}
